The target of this assay is T1, human IL-33 (human, UniProt O95760 112-270, limits assumed).
T1 construct: also called Interleukin-33
T1 sequence (looked up): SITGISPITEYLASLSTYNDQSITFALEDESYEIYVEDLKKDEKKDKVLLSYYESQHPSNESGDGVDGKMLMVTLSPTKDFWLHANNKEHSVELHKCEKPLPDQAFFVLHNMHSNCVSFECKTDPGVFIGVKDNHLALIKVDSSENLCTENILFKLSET
As to the kind of experiment: method not stated.

The values below come from patent publication US20200239562A1 (ANAPTYSBIO, published 2020).

B1: ANB020 (antibody, V domains shown)
VH: QVQLMQSGAEVKKPGASVKVSCKASGYTFTSYWMHWVRQAPGQGLEWMGTIYPRNSNTDYNQKFKARVTMTRDTSTSTVYMELSSLRSEDTAVYYCARPLYYYLTSPPTLFWGQGTLVTVSS
VL: DIQLTQSPSFLSASVGDRVTLTCKASQDVGTAVAWTQQKPGKAPKLLIYWASTRHTGVPSRFSGSGSGTEFTLTISSLQPEDFATYYCQQAKTYPFTFGSGTKLEIK
Consider B1, for which the Kd (usually the constant that tells how readily two partners part at equilibrium) is ~1 pM.
